US20190270798A1 (CHILDREN S MEDICAL CENTER, published 2019)

How the values were obtained:
mouse LRRC33 = biological target: T1, mouse LRRC33 (mouse, UniProt Q8BMT4 20-693, limits assumed); assay: immunoprecipitation from 293T transfectant lysates, blot
T1 construct: also called mouse LRRC33 complexes
T1 sequence (looked up): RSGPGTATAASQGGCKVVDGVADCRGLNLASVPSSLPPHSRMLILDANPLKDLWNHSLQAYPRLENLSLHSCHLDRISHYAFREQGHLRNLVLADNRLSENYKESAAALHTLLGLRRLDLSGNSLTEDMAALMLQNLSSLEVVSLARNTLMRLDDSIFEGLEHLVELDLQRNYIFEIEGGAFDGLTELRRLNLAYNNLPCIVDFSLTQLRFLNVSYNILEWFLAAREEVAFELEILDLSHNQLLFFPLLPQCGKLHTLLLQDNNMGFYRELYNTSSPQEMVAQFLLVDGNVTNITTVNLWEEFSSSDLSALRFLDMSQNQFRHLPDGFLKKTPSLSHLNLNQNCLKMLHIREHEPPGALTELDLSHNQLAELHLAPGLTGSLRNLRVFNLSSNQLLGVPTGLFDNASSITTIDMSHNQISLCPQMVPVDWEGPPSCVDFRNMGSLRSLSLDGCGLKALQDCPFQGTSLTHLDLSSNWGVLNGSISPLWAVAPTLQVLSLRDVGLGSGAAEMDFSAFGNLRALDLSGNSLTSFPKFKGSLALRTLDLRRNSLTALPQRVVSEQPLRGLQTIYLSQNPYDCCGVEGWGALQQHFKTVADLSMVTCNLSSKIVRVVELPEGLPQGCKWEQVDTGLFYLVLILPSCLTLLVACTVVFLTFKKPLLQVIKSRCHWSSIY

[1] = biological target: T2, human Glycoprotein A Repetitions Predominant (GARP) (human, UniProt Q14392 20-662); assay: immunoprecipitation from L1.2 transfectant lysates, blot
T2 construct: whole, on cells; tested in cell lysates; also called LRRC32; FLAG-tagged GARP
T2 sequence (looked up): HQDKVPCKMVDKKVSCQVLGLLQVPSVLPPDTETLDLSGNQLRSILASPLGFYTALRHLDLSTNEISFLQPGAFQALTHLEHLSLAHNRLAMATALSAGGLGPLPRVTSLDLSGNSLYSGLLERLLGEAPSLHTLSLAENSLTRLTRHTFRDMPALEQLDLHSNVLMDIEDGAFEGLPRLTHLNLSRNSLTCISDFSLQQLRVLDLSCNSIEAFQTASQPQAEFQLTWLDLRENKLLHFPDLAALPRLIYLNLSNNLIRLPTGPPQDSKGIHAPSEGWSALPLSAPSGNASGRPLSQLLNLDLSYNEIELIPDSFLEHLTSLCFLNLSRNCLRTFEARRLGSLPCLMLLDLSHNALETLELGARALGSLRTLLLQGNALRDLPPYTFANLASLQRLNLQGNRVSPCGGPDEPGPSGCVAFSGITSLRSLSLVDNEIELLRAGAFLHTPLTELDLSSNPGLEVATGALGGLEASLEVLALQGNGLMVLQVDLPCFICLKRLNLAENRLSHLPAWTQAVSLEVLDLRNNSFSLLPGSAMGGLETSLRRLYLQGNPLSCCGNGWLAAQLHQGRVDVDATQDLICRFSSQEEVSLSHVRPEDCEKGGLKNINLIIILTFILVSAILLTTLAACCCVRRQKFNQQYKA
Procedure: Cell surface expression of FLAG-LRRC33, FLAG-33-32-X1, and FLAG-33-32-X5 were measured using FACS. Numbers show the MFI (mean fluorescence intensity). (B, C) The specificity of anti-LRRC33 antibody.
Anti-LRRC33 mAb was generated by immunizing Lac33^{-/-} mice with L1.2 cells that stably express the 33-32-X1 chimera on the cell surface. Hybridoma supernatants were screened by immunofluorescence flow cytometry (FACS) and an LRRC33 positive hybridoma was identified. This anti-LRRC33 mAb only recognizes human LRRC33, not GARP, in L1.2 transfectants by immunoprecipitates (IP) (FIG. 8B, line 2, 3).
After 48 hours of transfection, cells were collected and lysed in IP lysis buffer (50 mM Tris pH7.4, 150 mM NaCl, 2 mM EDTA, 1% NP-40), which was supplemented with a protease inhibitor cocktail (Roche) and subjected to western blot analysis or were used for immunoprecipitation with the indicated antibody. Performed as described previously {Wang et al, 2012}. L1.2 cells were transfected with indicated plasmid using electroporation. […]

binding result (mouse LRRC33): no binding
binding result [1]: no binding
B1: anti-LRRC33 monoclonal antibody (mAb) (antibody, V domains shown)
VH: EFQLQQSGPELVKPGASVKMSCKASGYSFTDSYMDWVKQSNGKTLEWIGLINPKYGTTTYNQKFKGKATLTVDQSSSTAYMQLNSLTSEDSAVYFCASLYYDYSAWFAYWGQGTLVTVSA
VL: QAVVTQESALTTSPGETVTLTCRSSTGAVTTSNYANWVQEKPDHLFTGLIGGTNNRAPGVPARFSGSLIGDKAALIITGAQTEDEAIYFCGLWFSNRWVFGGGTKLTVV
notes: Mouse hybridoma mAb raised in Lrrc33-/- mice against L1.2 cells expressing the 33-32-X1 chimera; also called anti-LRRC33 mAb; anti-LRRC33 antibody
